Data from patent US20220073599A1 (Hoffmann-La Roche, published 2022).
Where a chain is given by its changes, count along the chain named. Each block holds one binder with its values, some of them ahead of it.

Columns and labels:
[1] = target: T1, human Ang2-RBD (human, UniProt O15123 275-496, limits assumed); assay: SPR, Fab captured by anti-Fab antibody, Ang2-RBD injected, 25 C
T1 construct: also called Human ANG2 (SPR); Angiopoietin 2-RBD
T1 sequence: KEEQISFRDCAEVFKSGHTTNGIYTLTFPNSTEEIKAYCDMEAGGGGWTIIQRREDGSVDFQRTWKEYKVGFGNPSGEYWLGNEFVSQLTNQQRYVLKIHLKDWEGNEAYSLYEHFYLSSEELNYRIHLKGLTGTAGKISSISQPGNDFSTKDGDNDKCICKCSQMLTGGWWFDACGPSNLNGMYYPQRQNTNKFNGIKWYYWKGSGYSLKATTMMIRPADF
Experimental: An anti-Fab capturing antibody (GE Healthcare 28958325) was immobilized to a Series S Sensor Chip C1 (GE Healthcare BR100535) using standard amine coupling chemistry resulting in a surface density of approximately 800 resonance units (RU). As running and dilution buffer, HBS-P+ (10 mM HEPES, 150 mM NaCl pH 7.4, 0.05% Surfactant P20) was used, the temperature of measurement was 25° C. The tested antibody was captured by injecting a 50 nM solution for 60 sec at a flow of 5 μl/min. Association was measured by injection of human Ang2-RBD in various concentrations in solution for 180 sec at a flow of 30 μl/min (0.07 nM-50 nM, 1:3 dilution). The dissociation phase was monitored for up to 900 sec and triggered by switching from the sample solution to running buffer at a flow rate of 30 μl/min. The surface was regenerated by injection of 10 mM Glycine pH 2.1 for 60 s at a flow rate of 30 μl/min. Bulk refractive index differences were corrected by subtracting blank injections and by subtracting the response obtained from the reference flow cell without captured tested antibody. Curve fitting was performed using the 1:1 Langmuir binding model within the Biacore® evaluation software.
(§1) Binding kinetics to human VEGF-A and human ANG2 for the candidate antibodies were assessed as described above using the indicated Fab fragments (amino acid sequence as illustrated in Table 4).

[2] = target: T2, human Ang2-RBD-muFc (human, UniProt O15123 275-496, limits assumed); assay: KinExA equilibrium titration in solution, constant Ang2-RBD-muFc
T2 construct: also called Human ANG2 (KinExA); not shown: murine Fc (muFc)
T2 sequence: T1 sequence
Experimental: All KinExA® experiments were performed at room temperature (RT) using PBS pH 7.4 with 0.01% BSA and 0.01% Tween® 20 (BioRad, #161-0781) as running buffer. […] A flow rate of 0.25 ml/min was used. A constant amount of Ang2-RBD-muFc (50 pM and in a second experiment 500 pM) was titrated with tested antibody by twofold serial dilution starting at 4 nM (concentration range 1.95 pM-4000 pM). Antigen-antibody complexes were incubated at RT for at least 8 h to allow equilibrium to be reached. Equilibrated mixtures were then drawn through a column of Anti-Ang2 antibody (MAB098) coupled beads in the KinExA® system at a volume of 750 μl for 50 pM constant Ang2 and at a volume of 188 μl for 500 pM constant Ang2 permitting unbound Ang2 to be captured by the beads without perturbing the equilibrium state of the solution. Bound Ang2 was detected using a second biotinylated anti-Ang2 antibody (BAM0981) with a concentration of 250 ng/ml and following by an injection of 250 ng/ml Streptavidin Alexa Fluor™ 647 conjugate in sample buffer. Each sample was measured in duplicates for all equilibrium experiments. The KD was obtained from non-linear regression analysis of the data using a one-site homogeneous binding model contained within the KinExA® software (Version 4.0.11) using the “standard analysis” method. The software calculates the KD and determines the 95% confidence interval by fitting the data points to a theoretical KD curve. The 95% confidence interval is given as KD low and KD high.

[3] = target: T3, human VEGFA-121-His (human, UniProt P15692 181-395); assay: SPR, VEGF-A121-His captured by anti-His antibody, Fab injected, single cycle kinetics
T3 construct: Prepared in-house; not shown: His tag
T3 sequence: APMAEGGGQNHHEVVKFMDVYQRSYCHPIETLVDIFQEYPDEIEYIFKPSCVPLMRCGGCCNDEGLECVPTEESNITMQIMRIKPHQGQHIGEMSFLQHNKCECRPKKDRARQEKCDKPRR
Experimental: (§2) An anti-His capturing antibody (GE Healthcare 28995056) was immobilized to a Series S Sensor Chip C1 (GE Healthcare BR100535) using standard amine coupling chemistry resulting in a surface density of approximately 600 resonance units (RU). As running and dilution buffer, HBS-P+ (10 mM HEPES, 150 mM NaCl pH 7.4, 0.05% Surfactant P20) was used. […] A dilution series of the tested antibody (3.7-300 nM, 1:3 dilution) was successively injected for 60 s each, dissociation was monitored for 3600 s at a flow rate of 30 μl/min (single cycle kinetics). The surface was regenerated by injecting 10 mM Glycine pH 1.5 for 60 s at a flow of 5 μl/min. […] Curve fitting was performed using the 1:1 Langmuir binding model within the Biacore® evaluation software.
as §1

[4] = target: T3, human VEGFA-121-His; assay: SPR, VEGF-A121-His captured by anti-His antibody, Fab injected, single cycle kinetics, 1:1 fit
Experimental: as §2, §1

[5] = target: T3, human VEGFA-121-His; assay: SPR, VEGF-A121-His captured by anti-His antibody, Fab injected, single cycle kinetics; marked outside of Biacore specification
Experimental: as §2, §1

[6] = target: T4, human VEGFA-121 (human, UniProt P15692 181-395); assay: SPR, Fab captured by anti-Fab antibody; 4) Ang2-RBD first, then VEGFA-121 (binding of VEGFA-121 in the presence of Ang2); final combined signal of both antigens
T4 construct: sources differ (in-house, R&D, Peprotech); also called hVEGF-A121
T4 sequence: T3 sequence
Experimental: The bispecific Fab was captured by injecting a 6.5 μg/ml solution for 60 sec at a flow of 5 μl/min. Independent binding of each ligand to the bispecific Fab was analysed by determining the active binding capacity for each ligand, either added sequentially or simultaneously (flow of 10 μl/min): [0359] […] [0360] 2) Injection of human Ang2 with a concentration of 5 μg/ml for 60 sec (identifies single binding of the antigen) [0361] […] [0362] […] [0363]
Independent binding of candidate antibodies to human VEGF-A and human ANG2 was analysed by SPR as described above in the “Materials & general methods” section.

t1/2 [1]: 1.82 h
Kd [2]: 2.75 pM
t1/2 [3]: 23.3 h
kon [4]: 737000 M⁻¹ s⁻¹
Kd [5]: 11 pM
koff [5]: 8.27e-06 s⁻¹
Signal [%] [6]: 90%
B1: bispecific anti-VEGF-A/anti-ANG2 Fab fragment P1AA0902 (Fab, V domains shown)
VH: DDHLVESGGGLVKPGGSLRLSCATADFFEYDDMSWVRQAPGKGLEWVGSISGRGDHKYLNTKFIGRFTISRDDSKNTLYLQMNSLRAEDTAVYYCARDVGFFDWWGQGTLVTVSS
VL: AIYMHQEPSSLSASVGDRVTITCHGSYWLNSELAWYQQKPGKAPKLLIFDGDFKVFDVPSRFSGSGSHEDYTLTISSLQPEDFATYYCQQYRYHPYTFGHGTKVEIKR
notes: Bispecific Fab with two paratopes in one VH/VL pair

t1/2 [1]: 0.00667 h
Kd [2]: 7180 pM
t1/2 [3]: 42.5 h
kon [4]: 1.66e+06 M⁻¹ s⁻¹
Kd [5]: 3 pM
koff [5]: 4.53e-06 s⁻¹
Signal [%] [6]: 91%
B2: bispecific anti-VEGF-A/anti-ANG2 Fab fragment P1AA8906 (Fab, V domains shown)
VH: DFQLVESGGGLVKPGGSLRLSCAASYEFEYDDMSWVRQAPGKGLEWVGSISPKGGSTYYNTKFIGRFTISRDNSKNTLYLQMNSLRAEDTAVYYCARDVGFFDMWGQGTLVTVSS
VL: B1 VL with N30S, S31N, E32Y, G51A, D52R, F53W, K54L, F56H, D57G
notes: Bispecific Fab with two paratopes in one VH/VL pair (DutaFab); CH1 and Ckappa

t1/2 [1]: 3.33 h
Kd [2]: 1.72 pM
t1/2 [3]: 33.1 h
kon [4]: 727000 M⁻¹ s⁻¹
Kd [5]: 8 pM
Signal [%] [6]: 92%
B3: bispecific anti-VEGF-A/anti-ANG2 Fab fragment P1AD9820 (Fab, V domains shown)
VH: B1 VH with D1S, D2E, G52P, R53K
VL: B1 VL with L33V, F56Y, D57E
notes: Bispecific Fab with two paratopes in one VH/VL pair; also called P1AD9820 Fab
